In the assay the target is monomeric SARS-CoV-2 receptor binding domain (RBD) (SARS-CoV-2, UniProt P0DTC2). Kind of assay: ELISA.

B1: DH1041 (ACE2 binding site-targeting RBD neutralizing antibody) (antibody, V domains shown)
VH: EVQLVESGGGLVQPGGSLRLSCAASGVTFSSYWMSWVRQAPGKGLEWVANIRQDGSEKYSVDSVKGRFTISRDNAKNSLYLQMNSLRAEDTAVYYCARARRADNSGYYGFHFDCWGQGTLVTVSS
VL: QSVLTQPPSVSGAPGQRVTISCTGSSSNIGAGYDVHWYQQLPGTAPKLLIYGNNNRPSGVPDRFSDSKSGTSASLAITRLQAEDEADYYCQSYDSSLSGWVFGGGTKLTVL
As for B1, the binding result was “binds”.

These data come from article doi:10.1101/2021.02.17.431492 (bioRxiv, 2021).
